For 4 substances, RGDP (GDP-resistance ratio) results are on record in paper PMC7474645.

Holding throughout (experiment): FRET or BRET
A general note: BRET reads energy transfer from a luciferase to a nearby fluorophore.

The target of assay [1] is endothelin A receptor fused to Rluc8 (ETA-Rluc8) (UniProt P25101).
In assay [2] the target is formyl peptide 2 receptor fused to Rluc8 (FPR2-Rluc8) (UniProt P25090).
Assay [3] deals with thromboxane A2 receptor fused to Rluc8 (TP-Rluc8) (UniProt P21731).
In assay [4] the target is Smoothened fused to Rluc8 (Smo-Rluc8) (UniProt Q99835).
The target of assay [5] is formyl peptide 1 receptor fused to Rluc8 (FPR1) (UniProt P21462).
Sequence of UniProt P21462 (P21462 whole entry, the tested form may be a part): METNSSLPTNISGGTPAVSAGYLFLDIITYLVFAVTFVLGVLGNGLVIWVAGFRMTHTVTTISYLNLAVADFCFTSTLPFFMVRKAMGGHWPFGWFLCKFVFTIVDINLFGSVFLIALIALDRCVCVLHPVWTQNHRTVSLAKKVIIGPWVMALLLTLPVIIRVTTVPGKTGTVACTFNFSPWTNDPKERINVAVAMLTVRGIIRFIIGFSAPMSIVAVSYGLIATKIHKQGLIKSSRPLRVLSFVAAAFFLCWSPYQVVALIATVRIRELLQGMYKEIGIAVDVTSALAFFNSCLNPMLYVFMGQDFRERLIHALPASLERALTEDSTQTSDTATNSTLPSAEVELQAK

Sequence of UniProt P25101 (P25101 21-427): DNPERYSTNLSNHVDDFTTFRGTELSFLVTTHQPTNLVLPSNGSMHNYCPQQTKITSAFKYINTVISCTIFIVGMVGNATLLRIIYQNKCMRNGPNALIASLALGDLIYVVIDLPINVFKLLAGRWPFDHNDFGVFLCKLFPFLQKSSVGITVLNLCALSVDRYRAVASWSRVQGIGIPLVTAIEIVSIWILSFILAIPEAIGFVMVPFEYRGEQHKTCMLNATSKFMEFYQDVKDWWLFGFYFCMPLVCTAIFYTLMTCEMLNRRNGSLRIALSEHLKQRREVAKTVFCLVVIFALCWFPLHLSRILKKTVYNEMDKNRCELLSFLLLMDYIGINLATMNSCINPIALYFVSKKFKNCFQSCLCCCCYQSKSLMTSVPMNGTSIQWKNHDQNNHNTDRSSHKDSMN
Sequence of UniProt P21731 (P21731 whole entry, the tested form may be a part): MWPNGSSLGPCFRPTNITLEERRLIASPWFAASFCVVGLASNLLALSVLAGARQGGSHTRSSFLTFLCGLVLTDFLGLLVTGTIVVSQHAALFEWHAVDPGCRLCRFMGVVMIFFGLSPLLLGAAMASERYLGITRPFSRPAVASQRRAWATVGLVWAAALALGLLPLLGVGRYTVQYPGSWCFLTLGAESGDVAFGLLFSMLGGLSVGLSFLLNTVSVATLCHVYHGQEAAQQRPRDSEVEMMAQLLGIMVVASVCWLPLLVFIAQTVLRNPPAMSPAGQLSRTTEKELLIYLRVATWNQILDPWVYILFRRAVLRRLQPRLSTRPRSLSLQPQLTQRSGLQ
Sequence of UniProt P25090 (P25090 whole entry, the tested form may be a part): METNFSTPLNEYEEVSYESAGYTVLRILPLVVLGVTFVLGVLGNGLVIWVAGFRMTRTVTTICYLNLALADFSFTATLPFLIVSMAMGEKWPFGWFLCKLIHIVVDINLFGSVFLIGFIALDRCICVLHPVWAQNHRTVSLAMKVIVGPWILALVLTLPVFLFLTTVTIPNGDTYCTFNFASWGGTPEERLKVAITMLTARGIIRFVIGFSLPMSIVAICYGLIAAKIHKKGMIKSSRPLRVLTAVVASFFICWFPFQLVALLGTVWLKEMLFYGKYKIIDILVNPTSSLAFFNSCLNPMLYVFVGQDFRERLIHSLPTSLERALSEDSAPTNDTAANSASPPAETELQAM
Sequence of UniProt Q99835 (Q99835 28-787): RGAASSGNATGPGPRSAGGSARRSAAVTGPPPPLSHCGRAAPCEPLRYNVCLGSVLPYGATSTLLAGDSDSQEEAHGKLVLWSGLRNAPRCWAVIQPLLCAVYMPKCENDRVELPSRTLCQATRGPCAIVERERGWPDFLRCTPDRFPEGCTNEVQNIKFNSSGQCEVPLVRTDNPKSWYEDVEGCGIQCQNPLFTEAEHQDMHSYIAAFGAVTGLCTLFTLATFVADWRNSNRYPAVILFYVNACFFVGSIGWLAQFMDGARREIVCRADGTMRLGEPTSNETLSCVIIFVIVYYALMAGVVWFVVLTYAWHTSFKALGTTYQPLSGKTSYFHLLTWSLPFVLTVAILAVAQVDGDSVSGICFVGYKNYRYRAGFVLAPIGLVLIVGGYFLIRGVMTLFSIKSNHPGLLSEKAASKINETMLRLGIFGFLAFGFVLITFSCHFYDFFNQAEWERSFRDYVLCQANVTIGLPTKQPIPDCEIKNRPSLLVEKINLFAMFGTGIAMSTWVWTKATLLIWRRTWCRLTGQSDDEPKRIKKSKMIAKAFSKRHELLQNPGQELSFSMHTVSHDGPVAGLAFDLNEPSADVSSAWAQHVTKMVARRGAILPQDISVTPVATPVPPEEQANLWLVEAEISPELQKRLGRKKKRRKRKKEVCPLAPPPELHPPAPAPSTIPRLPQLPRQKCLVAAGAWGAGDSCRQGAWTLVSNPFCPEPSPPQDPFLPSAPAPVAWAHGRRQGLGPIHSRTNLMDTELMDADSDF

Regarding “Gq heterotrimer, Gαqβ1γ2-Venus (from UniProt P50148;P62873;P59768) (complex)”, the RGDP (GDP-resistance ratio) in assay [1] worked out at 0.29.

“G12 heterotrimer, Gα12β1γ2-Venus (from UniProt Q03113;P62873;P59768) (complex; other documents disagree on this pair)”: the RGDP (GDP-resistance ratio) in assay [2] stood at 0.92.

For the substance “G13 heterotrimer, Gα13β1γ2-Venus (from UniProt Q14344;P62873;P59768) (complex)”, the figures for the RGDP (GDP-resistance ratio) in assay [3] and in assay [1] were 0.18 and 0.21, respectively.

For “G12 heterotrimer, Gα12β1γ2-Venus (from UniProt Q03113;P62873;P59768) (complex)”, the RGDP (GDP-resistance ratio) in assay [4] came out at 1.01; in assay [5], 0.96; in assay [3], 0.55; in assay [1] it was 0.66.
